{"source": "patent US20150071918A1", "about": "“PEPTIDES FOR THE TREATMENT OF CANCER” (H. LEE MOFFITT CANCER CENTER AND RESEARCH INSTITUTE, INC., priority 2012, published 2015)", "key": {"[1]": {"system": "peripheral blood mononuclear cells (PBMC)", "assay": "Cell death in normal peripheral blood mononuclear cells, annexin V positivity and FACS", "assay_type": "cell-based, human", "details": "6.25-50 ug/ml, six hours", "method": "Peripheral blood mononuclear cells (PBMC) were isolated from a normal donor. Cells were treated with 6.25, 12.5, 25 and 50 ug/ml for six hours and cell death was measured by annexin V positivity and FACS analysis.\nCD34^+ hematopoietic progenitor cells were isolated from peripheral blood and treated for 2 hrs with integrin interaction inhibitors (12.5 and 50 μg/ml) and then plated in a methylcellulose media supplemented with growth factors supporting myeloid and erythroid colonies. Colonies were counted on day 12 post-plating. […] In addition, we evaluated the toxicity of integrin interaction inhibitors in normal peripheral blood mononuclear cells (PBMC)."}, "H929 myeloma cells": {"system": "H929 myeloma cells", "assay_type": "cell-based, human", "details": "for IC50: read-out: IC50", "method": "H929 cells were treated for 24 hours with varying concentrations of peptide. Cell death was measured by Topro-3 staining and FACS analysis. The IC50 values were obtained from linear regression analysis and an average value was obtained from 3 independent experiments.\nTable 4 legend: Structure activity relationship in H929 myeloma cells of cyclic INTEGRIN INTERACTION INHIBITORS derivatives. The minimal bioactive core sequence of INTEGRIN INTERACTION INHIBITORS WSVVM (SEQ ID NO:33) was cyclized using 2 novel reduced amide bond beta turn promoters and KLKLK (SEQ ID NO:34) as the non-recognition sequence. H929 cells were treated with varying concentrations of the indicated peptide for 24 h. Cell viability was determined using Topro-3 staining and FACS analysis after drug treatment. IC50 values were generated from linear regressions generated from the dose response curves (n=mean of 3 independent experiments).\nA colony forming assay was used to compare induced cell death in H929 multiple myeloma cells. Cells were treated with integrin interaction inhibitors, shown in FIG. 5 and Table 4, and cell death was measured following 24 hour peptide treatment by TOPRO-3 staining and FACS analysis."}, "[2]": {"molecular_target": "Basigin (Homo sapiens (Human)) (UniProt P35613)", "sequence (P35613 other isoform, or with tags, fused parts or gaps limits assumed)": "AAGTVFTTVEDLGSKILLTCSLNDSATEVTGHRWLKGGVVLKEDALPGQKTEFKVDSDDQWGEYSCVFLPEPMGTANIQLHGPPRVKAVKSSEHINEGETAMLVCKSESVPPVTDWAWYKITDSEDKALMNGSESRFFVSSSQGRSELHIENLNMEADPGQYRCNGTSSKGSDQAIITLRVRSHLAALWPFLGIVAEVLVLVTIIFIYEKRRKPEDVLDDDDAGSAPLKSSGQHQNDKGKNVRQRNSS", "assay": "biotin-HYD1 NeutrAvidin pull-down of U266 membranes, LC-MS/MS"}, "[3]": {"molecular_target": "Intercellular adhesion molecule 3 (ICAM3) (Homo sapiens (Human)) (UniProt P32942)", "sequence (P32942 30-547 limits assumed)": "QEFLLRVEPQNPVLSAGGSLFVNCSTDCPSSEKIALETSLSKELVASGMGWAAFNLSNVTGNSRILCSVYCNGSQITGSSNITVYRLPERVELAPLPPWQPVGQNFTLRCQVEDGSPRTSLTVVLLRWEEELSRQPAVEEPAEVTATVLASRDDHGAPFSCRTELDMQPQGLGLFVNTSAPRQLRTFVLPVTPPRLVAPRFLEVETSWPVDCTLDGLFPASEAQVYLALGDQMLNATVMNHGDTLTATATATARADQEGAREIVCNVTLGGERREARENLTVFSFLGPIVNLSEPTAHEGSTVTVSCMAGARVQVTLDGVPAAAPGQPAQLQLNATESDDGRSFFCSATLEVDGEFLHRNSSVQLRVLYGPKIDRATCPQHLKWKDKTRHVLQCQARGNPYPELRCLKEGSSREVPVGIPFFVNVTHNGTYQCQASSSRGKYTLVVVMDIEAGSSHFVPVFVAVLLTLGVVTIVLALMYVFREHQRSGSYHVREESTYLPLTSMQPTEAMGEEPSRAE", "assay": "biotin-HYD1 NeutrAvidin pull-down of U266 membranes, LC-MS/MS"}, "[4]": {"molecular_target": "CD44 (endogenous, of NCI-H929, U266, U937 and HL-60 cells) (human) (UniProt P16070)", "sequence (P16070 21-742 limits assumed)": "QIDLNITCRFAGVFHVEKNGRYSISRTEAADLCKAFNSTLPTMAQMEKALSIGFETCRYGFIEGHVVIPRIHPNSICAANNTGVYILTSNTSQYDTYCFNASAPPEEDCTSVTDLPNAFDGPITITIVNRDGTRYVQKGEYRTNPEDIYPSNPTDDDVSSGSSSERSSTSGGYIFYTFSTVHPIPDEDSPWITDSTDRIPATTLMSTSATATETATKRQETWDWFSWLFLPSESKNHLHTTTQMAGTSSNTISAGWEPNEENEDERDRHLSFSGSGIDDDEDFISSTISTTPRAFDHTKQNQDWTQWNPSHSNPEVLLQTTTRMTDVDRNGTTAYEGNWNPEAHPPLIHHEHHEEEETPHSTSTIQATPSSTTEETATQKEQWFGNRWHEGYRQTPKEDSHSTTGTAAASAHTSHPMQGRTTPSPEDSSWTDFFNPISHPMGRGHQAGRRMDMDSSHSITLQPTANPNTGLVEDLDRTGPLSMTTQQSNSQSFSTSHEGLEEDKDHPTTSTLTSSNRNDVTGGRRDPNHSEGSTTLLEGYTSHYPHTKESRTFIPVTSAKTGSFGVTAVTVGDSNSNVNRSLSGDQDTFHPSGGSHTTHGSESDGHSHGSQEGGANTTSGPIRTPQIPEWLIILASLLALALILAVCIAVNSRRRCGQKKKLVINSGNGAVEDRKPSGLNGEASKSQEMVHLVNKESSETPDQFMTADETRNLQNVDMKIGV", "assay": "biotin-HYD1 NeutrAvidin pull-down of U266 membranes, LC-MS/MS"}, "[5]": {"molecular_target": "Syndecan-1 (Homo sapiens (Human)) (UniProt P18827)", "sequence (P18827 23-310 L136Q/G259V limits assumed)": "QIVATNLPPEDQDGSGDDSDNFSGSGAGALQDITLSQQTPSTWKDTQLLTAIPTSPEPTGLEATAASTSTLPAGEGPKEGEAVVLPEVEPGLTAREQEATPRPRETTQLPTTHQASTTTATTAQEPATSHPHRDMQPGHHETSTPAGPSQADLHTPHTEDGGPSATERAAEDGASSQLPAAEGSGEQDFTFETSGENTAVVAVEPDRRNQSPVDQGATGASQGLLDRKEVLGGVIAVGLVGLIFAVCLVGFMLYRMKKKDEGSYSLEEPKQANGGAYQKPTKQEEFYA", "assay": "biotin-HYD1 NeutrAvidin pull-down of U266 membranes, LC-MS/MS"}, "CD59 [6]": {"molecular_target": "CD59 (UniProt P13987)", "sequence (P13987 26-102 limits assumed)": "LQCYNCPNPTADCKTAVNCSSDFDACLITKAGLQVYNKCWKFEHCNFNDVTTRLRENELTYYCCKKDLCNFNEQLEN", "assay": "biotin-HYD1 NeutrAvidin pull-down of U266 membranes, LC-MS/MS"}, "[7]": {"molecular_target": "Intercellular adhesion molecule 1 (ICAM1) (Homo sapiens (Human)) (UniProt P05362)", "sequence (P05362 28-532 limits assumed)": "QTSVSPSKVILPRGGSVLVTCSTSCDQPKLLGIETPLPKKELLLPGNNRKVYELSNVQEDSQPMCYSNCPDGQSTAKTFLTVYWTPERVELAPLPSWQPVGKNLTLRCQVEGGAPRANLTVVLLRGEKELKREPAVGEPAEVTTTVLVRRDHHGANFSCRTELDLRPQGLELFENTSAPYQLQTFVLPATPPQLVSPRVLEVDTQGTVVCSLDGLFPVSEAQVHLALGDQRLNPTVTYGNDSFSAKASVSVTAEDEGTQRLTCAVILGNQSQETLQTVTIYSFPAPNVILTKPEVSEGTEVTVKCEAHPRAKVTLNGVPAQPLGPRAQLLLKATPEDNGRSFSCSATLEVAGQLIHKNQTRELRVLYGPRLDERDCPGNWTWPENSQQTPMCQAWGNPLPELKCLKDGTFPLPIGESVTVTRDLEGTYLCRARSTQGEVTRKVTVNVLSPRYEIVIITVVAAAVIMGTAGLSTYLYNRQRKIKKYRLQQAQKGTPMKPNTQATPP", "assay": "biotin-HYD1 NeutrAvidin pull-down of U266 membranes, LC-MS/MS"}, "CD59 [8]": {"molecular_target": "CD59 (UniProt P13987)", "assay": "LC-MS/MS of the biotin-HYD1 binding complex pulled down from NCI-H929 membranes (row CD59, column NCI-H929) [panel A.]"}, "[9]": {"molecular_target": "recombinant human CD44 ectodomain (amino acids 20-178, His-tagged, refolded from E. coli) (human) (UniProt P16070)", "sequence (P16070 20-178)": "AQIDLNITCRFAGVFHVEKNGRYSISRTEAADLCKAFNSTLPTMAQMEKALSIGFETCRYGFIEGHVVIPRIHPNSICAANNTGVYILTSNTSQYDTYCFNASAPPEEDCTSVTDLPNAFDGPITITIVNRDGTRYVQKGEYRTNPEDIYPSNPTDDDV", "assay": "SPR, Biacore T100, recombinant CD44 ectodomain over biotin-HYD1 sensor chip, 1:1 binding model"}, "[10]": {"molecular_target": "recombinant human CD44 ectodomain (amino acids 20-178, His-tagged, refolded from E. coli) (human) (UniProt P16070)", "assay": "SPR, recombinant CD44 ectodomain on biotin conjugated HYD1, two-state binding model"}, "[11]": {"molecular_target": "Basigin (Homo sapiens (Human)) (UniProt P35613)", "assay": "biotin-HYD1 NeutrAvidin pull-down of NCI-H929 membranes, LC-MS/MS"}, "β1 integrin": {"molecular_target": "β1 integrin (UniProt P05556)", "sequence (P05556 21-798)": "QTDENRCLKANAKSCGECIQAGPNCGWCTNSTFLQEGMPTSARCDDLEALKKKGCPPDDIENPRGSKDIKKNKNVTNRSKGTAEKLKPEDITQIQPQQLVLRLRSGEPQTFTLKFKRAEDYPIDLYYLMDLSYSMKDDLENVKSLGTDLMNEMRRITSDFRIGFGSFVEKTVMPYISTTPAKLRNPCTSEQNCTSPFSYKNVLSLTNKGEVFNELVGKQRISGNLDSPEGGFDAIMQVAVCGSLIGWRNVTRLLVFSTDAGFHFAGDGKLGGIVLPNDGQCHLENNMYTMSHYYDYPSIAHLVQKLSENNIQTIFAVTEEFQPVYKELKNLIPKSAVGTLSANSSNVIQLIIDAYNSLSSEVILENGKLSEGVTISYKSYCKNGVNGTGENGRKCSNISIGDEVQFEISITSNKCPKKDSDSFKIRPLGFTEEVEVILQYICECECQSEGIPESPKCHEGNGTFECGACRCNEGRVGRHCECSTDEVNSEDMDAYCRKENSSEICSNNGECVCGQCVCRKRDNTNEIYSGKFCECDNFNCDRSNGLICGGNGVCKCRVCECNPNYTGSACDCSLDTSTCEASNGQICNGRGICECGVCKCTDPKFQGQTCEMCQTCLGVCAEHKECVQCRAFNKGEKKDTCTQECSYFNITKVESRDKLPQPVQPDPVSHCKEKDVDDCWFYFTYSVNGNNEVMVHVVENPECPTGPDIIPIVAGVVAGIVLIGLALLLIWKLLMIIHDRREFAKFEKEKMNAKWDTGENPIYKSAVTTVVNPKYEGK", "assay": "biotin-HYD1 NeutrAvidin pull-down of NCI-H929 membranes, LC-MS/MS"}, "[12]": {"molecular_target": "CD44 (endogenous, of NCI-H929, U266, U937 and HL-60 cells) (human) (UniProt P16070)", "assay": "biotin-HYD1 NeutrAvidin pull-down of NCI-H929 membranes, LC-MS/MS"}, "[13]": {"molecular_target": "Syndecan-1 (Homo sapiens (Human)) (UniProt P18827)", "assay": "biotin-HYD1 NeutrAvidin pull-down of NCI-H929 membranes, LC-MS/MS"}, "[14]": {"molecular_target": "α4 integrin (Homo sapiens (Human)) (UniProt P13612)", "assay": "biotin-HYD1 NeutrAvidin pull-down of NCI-H929 membranes, LC-MS/MS"}, "CD59 [15]": {"molecular_target": "CD59 (UniProt P13987)", "assay": "biotin-HYD1 NeutrAvidin pull-down of NCI-H929 membranes, LC-MS/MS"}, "[16]": {"molecular_target": "Neural cell adhesion molecule 1 (NCAM1) (Homo sapiens (Human)) (UniProt P13591)", "sequence (P13591 other isoform, or with tags, fused parts or gaps limits assumed)": "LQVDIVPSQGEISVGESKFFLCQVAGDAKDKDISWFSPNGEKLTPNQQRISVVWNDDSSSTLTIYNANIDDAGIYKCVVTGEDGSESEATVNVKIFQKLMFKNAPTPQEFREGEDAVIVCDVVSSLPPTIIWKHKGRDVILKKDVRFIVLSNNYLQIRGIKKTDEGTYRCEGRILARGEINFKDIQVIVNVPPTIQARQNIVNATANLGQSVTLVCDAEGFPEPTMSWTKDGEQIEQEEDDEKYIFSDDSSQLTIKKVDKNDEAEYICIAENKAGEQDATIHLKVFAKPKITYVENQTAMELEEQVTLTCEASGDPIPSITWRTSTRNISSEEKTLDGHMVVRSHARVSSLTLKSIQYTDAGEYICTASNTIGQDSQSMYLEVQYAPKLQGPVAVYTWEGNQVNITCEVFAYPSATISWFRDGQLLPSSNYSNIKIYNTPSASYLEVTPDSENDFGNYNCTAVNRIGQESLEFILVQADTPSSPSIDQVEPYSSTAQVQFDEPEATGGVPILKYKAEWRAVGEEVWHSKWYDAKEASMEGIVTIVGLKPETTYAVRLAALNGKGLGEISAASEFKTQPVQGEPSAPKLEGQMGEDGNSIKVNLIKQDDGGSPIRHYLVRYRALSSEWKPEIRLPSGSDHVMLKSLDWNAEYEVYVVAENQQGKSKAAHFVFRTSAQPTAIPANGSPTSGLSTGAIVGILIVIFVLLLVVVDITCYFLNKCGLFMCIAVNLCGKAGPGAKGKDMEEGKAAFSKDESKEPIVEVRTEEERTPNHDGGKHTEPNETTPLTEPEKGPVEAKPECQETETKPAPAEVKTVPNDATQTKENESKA", "assay": "biotin-HYD1 NeutrAvidin pull-down of NCI-H929 membranes, LC-MS/MS"}, "[17]": {"details": "H929 myeloma cells, 24 h treatment, Topro-3 staining and FACS, mean of at least 3 independent experiments"}, "[18]": {"details": "Table 8, cyclic III peptide analogs, H929 cells"}}, "note": "Read-outs that look alike come from different tables or passages of the source. *1 amine or outer side, *2 acyl side, *3 side chain or, on linkers, in order; H or OH if unused. Where no end group is shown, it is not given here. [ ]: non-standard residue; d: D form. T1 = linker NH2CH2CH2N(SO2Me)CH2COOH, CS(=O)(=O)N(CCN[*:1])CC(=O)[*:2]; T3 = linker N(CH2)3CHCH2OCH2COOH; Nle = CCCC[C@H](N)C(=O)O"}
{"molecule": "CC[C@@H](C)[C@@H](NC(=O)[C@H](N)CCCCN)C(=O)N[C@H](CCCCN)C(=O)N[C@H](CCSC)C(=O)N[C@@H](C(=O)N[C@@H](C(=O)N[C@H](CO)C(=O)N[C@H](Cc1c[nH]c2ccccc12)C(=O)N[C@H](CCCCN)C(=O)NCC(=O)O)[C@H](C)CC)C(C)C", "note": "[HYD1]", "values": [{"measurement": "cell death in PBMC", "setting": "[1]", "result": "more potent in MM cells (H929) compared to normal hematopoietic cells"}]}
{"molecule": "KLKLKT1WSVVMT1 (cyclo(KLKLK[T1]WSVVM[T1])) [Peptide 10]", "values": [{"measurement": "IC50", "setting": "H929 myeloma cells; [17]", "result": 1, "unit": "µM"}, {"measurement": "bioactivity relative to parent/comparator peptide", "setting": "H929 myeloma cells; SAR statements, H929 cells", "result": "increases in activity relative to the inverso peptide"}, {"measurement": "IC50", "setting": "H929 myeloma cells; Table 4, H929 myeloma cells, 24 h, Topro-3 staining and FACS, mean of 3 independent experiments", "result": 6.7, "unit": "µM"}, {"measurement": "IC50", "setting": "H929 myeloma cells; Table 5, H929 multiple myeloma cells, 24 hour peptide treatment, mean and standard deviation of three independent experiments", "result": 5.9, "unit": "µM"}, {"measurement": "IC50", "setting": "H929 myeloma cells; [18]", "result": 6, "unit": "µM"}]}
{"molecule": "KLKLQT1N*VVAWT3 (cyclo(KLKLQ[T1][Nle]VVAW[T3])) [Peptide 19]", "values": [{"measurement": "IC50", "setting": "H929 myeloma cells; [17]", "result": 12, "unit": "µM"}, {"measurement": "IC50", "setting": "H929 myeloma cells; [18]", "result": 19, "unit": "µM"}]}
{"molecule": "KLKQKT1N*VVAWT3 [17] (cyclo(KLKQK[T1][Nle]VVAW[T3])) [Peptide 17]", "values": [{"measurement": "IC50", "setting": "H929 myeloma cells; [17]", "result": 25, "unit": "µM"}, {"measurement": "IC50", "setting": "H929 myeloma cells; [18]", "result": 13, "unit": "µM"}]}
{"molecule": "KLKQKT1N*VVAWT3 [21] (cyclo(KLKQK[T1][Nle]VVAW[T3])) [Peptide 21]", "values": [{"measurement": "IC50", "setting": "H929 myeloma cells; [17]", "result": 39, "unit": "µM"}, {"measurement": "IC50", "setting": "H929 myeloma cells; [18]", "result": 25, "unit": "µM"}]}
{"molecule": "KQKLKT1N*VVAWT3 (cyclo(KQKLK[T1][Nle]VVAW[T3])) [Peptide 20]", "values": [{"measurement": "IC50", "setting": "H929 myeloma cells; [17]", "result": 15, "unit": "µM"}, {"measurement": "IC50", "setting": "H929 myeloma cells; [18]", "result": 18, "unit": "µM"}]}
{"molecule": "[dK][dI][dK][dM][dV][dI][dS][dW][dK]G (also: biotin conjugated, site not given here)", "note": "[biotin-HYD1 (biotin conjugated HYD1, all D-amino acid peptide kikmviswkg)]", "values": [{"measurement": "Peptide match (peptide match hits)", "setting": "[2]", "result": 8}, {"measurement": "Peptide match (peptide match hits)", "setting": "[3]", "result": 3}, {"measurement": "Peptide match (peptide match hits)", "setting": "[4]", "result": 5}, {"measurement": "Peptide match (peptide match hits)", "setting": "[5]", "result": 6}, {"measurement": "Peptide match (peptide match hits)", "setting": "CD59 [6]", "result": 2}, {"measurement": "Peptide match (peptide match hits)", "setting": "[7]", "result": 6}, {"measurement": "# peptides identified", "setting": "CD59 [8]", "result": 3, "unit": "peptides"}, {"measurement": "Kd", "setting": "[9]", "result": 0.026, "unit": "µM"}, {"measurement": "Kd", "setting": "[10]", "result": 0.0244, "unit": "µM"}, {"measurement": "Peptide match (peptide match hits)", "setting": "[11]", "result": 7}, {"measurement": "Peptide match (peptide match hits)", "setting": "β1 integrin", "result": 2}, {"measurement": "Peptide match (peptide match hits)", "setting": "[12]", "result": 7}, {"measurement": "Peptide match (peptide match hits)", "setting": "[13]", "result": 5}, {"measurement": "Peptide match (peptide match hits)", "setting": "[14]", "result": 3}, {"measurement": "Peptide match (peptide match hits)", "setting": "CD59 [15]", "result": 2}, {"measurement": "Peptide match (peptide match hits)", "setting": "[16]", "result": 4}]}
